Experimental findings from publication PMC9651203 are described below.

Assay [1] deals with DnaK (protein used for surface plasmon resonance) (Mycoplasma fermentans). Description: SPR; BIAcore T100, 25°C, HBS-EP (10 mM HEPES, 150 mM NaCl, 0.05% surfactant P20, pH 7.4, 3 mM EDTA); DnaK (2274.9 RU) amine-coupled on CM5 chip, DnaK as analyte at 35 ul/min, 120 s association, 600 s dissociation; preliminary kinetic analysis; self-binding (homodimer by the paper's words). (In general: SPR reads the build-up and loss of mass on a sensor chip optically.)

Assay [2] shares this target. In words: SPR; BIAcore T100, 25°C, HBS-EP (10 mM HEPES, 150 mM NaCl, 0.05% surfactant P20, pH 7.4, 3 mM EDTA); DnaK (2220 RU) amine-coupled on CM5 chip, PARP1 as analyte at 35 ul/min, 250 s association, 600 s dissociation; preliminary kinetic analysis.

Broadly, the Kd is the constant that tells how readily two partners part at equilibrium. The substance “DnaK (protein used for surface plasmon resonance) (natural protein)” had a Kd in assay [1] of 29.6 nM.
Consider “PARP1 (protein used for surface plasmon resonance) (from UniProt P09874 1-1014) (natural protein)”, for which the Kd in assay [2] worked out at 25 nM.
